# From the DeepSol protein solubility set
# Assay: soluble on expression in E. coli; label from the status in PepcDB or PDB records
row,Sequence,soluble on expression in E. coli
1,MQVTSAEYLSNEESIKKGGNILMEKYNEKYNESIDGNKTLYKSYYESRRESIKNYNPDAKYINEIESIYMMLGEIYPNAPDFMSPHFEGDCSEGE,not soluble
2,MSNVAENNDGVYDAPTGITAPPIDELLKHVSSKYALVIFAAKRARQINSYYQQADEGVFEFVGPLVTPEAQEKPLSIAMREIEAGLLDHEEG,not soluble
3,MKIEELIAIRRDLHRIPELGFQEFKTQQYLLNVLEQYPQDRIEIEKWRTGLFVKVNGTAPEKMLAYRADIDALSIEEQTGLPFASEHHGNMHACGHDLHMTIALGIIDHFVHHPVKHDLLFLFQPAEEGPGGAEPMLESDVLKKWQPDFITALHIAPELPVGTIATKSGLLFANTSELVIDLEGKGGHAAYPHLAEDMVVAASTLVTQLQTIISRNTDPLDSAVITVGTITGGSAQNIIAETAHLEGTIRTLSEESMKQVKERIEDVVKGIEIGFRCKGKVTYPSVYHQVYNTSGLTEEFMSFVAEHQLATVIEAKEAMTGEDFGYMLKKYPGFMFWLGADSEHGLHHAKLNPDENAIETAVHVMTGYFSVYAN,not soluble
4,MGSDKIHHHHHHMYDAVIIGGGPGGYVCAIKLAQLGKKVALVEKDALGGTCTNRGCIPTKAMLTVSHLMDEMKEKASKYGLKVSGVEYDVAAIMKHVQKSVMMSRKGIEYLLKKNGVEVFKGTAVVENKNTVVVQETGEKLEAKNLVLAHGSVPSVFSPFDIDGVWTSDDVFNLKEFPKSLVIVGGGVIGVEFATFFGSFGVDVTIVEIAEHILPYEDSDVAEEVKKALKRKGVKILEKTKISSLSKVDDGFEVALENGETLKAEKVLLAAGRKPNIPEDVKALGVKIEKGVVTDSRMRTNVENVYAIGDIRSGIMLAHVAMYEGIVAAKNIAGEEEEMDYSAVPSIIFSSPEVASVGVREKDVNPEEVVISKFPVSANGRARTMLENIGFAKVIADKKDGTVLGMSIVSPSATDMIMEGVIAVKFRMKAEDLEKAIHPHPTLTETILGALEGVSGKPIHL,not soluble
5,MSLTSEIVNSAWKVIPMFESRSIPLTVDFYTKTLGFELGSVKPEDNESELYFCSLAIGKKADANFYFSKVTPETFKSSHAMIGLGTRQLDDYYVYLKGKIEVEFSEDIEDKPWGFRQFTIKDTDGNSLTFFKFLEGGNPGDEGHHHHHH,soluble
6,MGSDKIHHHHHHMIEVQKQIDLDLELDIYKKLLEDNILFFDIETTGFDKEKEKVVLISGGWFLQDKKFVIKQYFAESLDEEVQVLKAFKEDVTKFNSWCSYNGKAFDEPFIKKRMNINNIEFTPPREHIDLYRIIRPYYKQLGMERCNLKSVEKYLGIHRADKIDGGISVELYYNFLDTKDERLRYVIMLHNYEDVLNLPSIFKLTYDIEKNDTLKREGGITKKQLDYLRFLMKKNNIQVTDDLKKISKKSASRIIDSILRGNIDIDKFNAIIKDSY,not soluble
7,MTSEQNIQTFRDFLTQYNLVAEQCFNSCVNEFGSRTVSGKEESCANNCLDKFLKMTQRVSQRFQEHQLLNAQANGAAIKVENGGKINKIQ,not soluble
8,MGSDKIHHHHHHMSEETTGQLPDVLWHYTTFDTLTAILTSQCLLASDFRDTNDREEILFGFKALRDAFGTHNTWNTTEGFADPVSAAIRENEERIIEDLESSFLHGQMICLSSARDSLSMWRGYGQLTNGGGNGAVAIGFCAADLQTFCGPSDATLQSSTAHIQQNASGGFEGPSNVDYAFRNFPQLSNALSNEDYSADFHLKWTHYLAHWMKHRKHPAFAEEREYRIWGHAYDGNDKGNSQHVVFVGNHDRRKFHLAPAPDDILGPLTHPLAIQKIMVGPKTDFAKVERFTRNVFQSYTHDRPDMCASKIPFK,not soluble
9,MGSDKIHHHHHHMLFNQLQNETNLTNSEKEIARYLLNQNLDLATLSAQKLGELTFTSKPTVLRFIKKLGYKKFNEFCYDLISEQERIKKSRDLLKHININKDSNLSDLLIKVPNLYNQAINRTNSLMDQENLNLIVKKLNTLDYIDFYGSGITEGLAQIGSFKFSSIGKFGGVYSNVNEHYLTSIHGINKHGAIIISFTGGNKAMINAAKDLKKLNIYSLGIGGLENEELKNNCSSYLTIPFENLSLGMESIVPSVAINYVIDILFTSLTIKNLSQNVTNALKVKNLRK,not soluble
10,MGSDKIHHHHHHMNAPLNHPLPLLDLDVLRTFVAIAETGSFTTAANAVFRTPSAVSMQIKKLEDILGRSVFARDARSVSLTTDGEMLLGYARRLLSINREVVSKFIIPEIVGVVRLGSPDDYGERVLPHVLKRFAQSHPSIAVDVTIDQSSNLRRRMDDRALDITLLTNSYKTSALGAEVLLTEPIVWAGAKGGCAHLREPLPVSLWEEGCAWRAGALEALGREGRNYRVAYMSAHTAGQRAAIMADLAVAPLPRSFLGNDMVELCPKDGMPDIGTYNLAMVVAPDASAPVKAVADHIRATFEVFRETGKF,not soluble
11,MNKTMAKSLSVIIPACNEVDTISDVIQSVRPLNPVEIIVVANGCNDGTEDVADRLGCKVIKHTELLGNDVGRAVGAKHAIGDVLLFIDGDFAIPTSKLKLFLNPILYDQADVVLNNLDALFLKRQKTTSITVWRQILNAMLEREELKMNSLLDVPHALTKEVVQSIGYECFVNPIVAHLRLVQSKWRISRHCAIDVITPNKFRPFQHAAYGTNLSQSEKRMIGDHIEAVAERILSSDERGGYYDGNRKRDSVYHTLSFEEFYQGWGVTSDFYKGKQLSVVIPVQDEEKTIGNVIEELRKIEPFEIIVVVNGSSDKTKKIAKDKGATTIVYKEALGNDVGRSLGTYFAKGEIVLFIDGDFVIPASELYPFAKAIADGTDVALNDLNHYLDLRVPLHLVTAFKYALNLACDRKDLGVGSLIAVPNAFSRKCLKEIGYRSLLAPCVAQVKAILSGFEVACVSRVEVDKMNRIRPSEHFAKIGHPPAVLRIIGDHIEGLDQIIALTDNRGGFYDGNRKRDVLLEHHHHHH,not soluble
12,MKELVVVAIGGNSIIKDNASQSIEHQAEAVKAVADTVLEMLASDYDIVLTHGNGPQVGLDLRRAEIAHKREGLPLTPLANCVADTQGGIGYLIQQALNNRLARHGEKKAVTVVTQVEVDKNDPGFAHPTKPIGAFFSDSQRDELQKANPDWCFVEDAGRGYRRVVASPEPKRIVEAPAIKALIQQGFVVIGAGGGGIPVVRTDAGDYQSVDAVIDKDLSTALLAREIHADILVITTGVEKVCIHFGKPQQQALDRVDIATMTRYMQEGHFPPGSMLPKIIASLTFLEQGGKEVIITTPECLPAALRGETGTHIIKT,soluble
13,MGSDKIHHHHHHMKVLELKNVSVRYKTGEKTVNAVENVSFHLEKGETLGLVGESGCGKSTLGFSIMRLLPKGTKIDGSIKIEGIDISSLSDEEMRQIRGSKVAMIFQDPMTSLNPILRIEDHFVEMILTHRPELSKEDARELAAKALEDVGINRNRLKDYPFQFSGGMRQRVMIALSIVLNPAVLIADEPTTSLDVIVQAQIMELLEKLTKEHRTAMILITHDMGLVAEAADRIGVMYAGHLVELASKERIFTNPLHPYTVGLLRSIPNTDVNDKELRYIPGSPPDLSNPPEGCRFAPRCEKAMKICWEKEPPEFEIDGTRVKCWLYGGDQNGTD,not soluble
14,MESLQSIKEIRKYIENNELVLMYFRSDNSGICYALDPLIEAISKKYSKISSVKVNTGNLPSVPADFKIFTVPEVIIFMNGSIVIEHFKYINFREIEEVLLRYYKCI,not soluble
15,MMVVNIKMQQMKSQFIQYNDSNNKVLYQKCKPVADIQNAEIQNIITEMHEKMQGNGIGLAANQIGYPYQIFMIEFDSSNARYPFSFDSVPYQVFINPKITKASKQRVSFWHGCLSALGEKRGKLATYKEIEYEAYNQHGEKITGKLDSIAAIIFQHEFNHLLGSVYVDFDTEYIDNEELQAKFASGELKPYQECGEEVPLLLEKYQIGKNI,not soluble
16,MLIHYIDIAKRNFVIAVSSLSKTKTETNNPKGIAHTIEYLKKHKVALVVTESTGGLEIPAAKAIHRAGIAVIIANPRQTHQFAQSQSLTKTDAKDAKMPAFFAQMKAQKEDWQTMPYHPPTEAEEVLEALVNRRNQSADMRTAEKNRLHQVHETQVGSVKQLIAHFDRLIDESDKQIDDHTHTHFDGKAQVAEQIKGIGSITTATLMAMLPELGRLSHKRIASLVGIAPHPRKSGEAKFKSRCFGGRSAVLKALYMATVAATRFEPLIRDFHQRPLSEGKPYKVAVTACMRKLLETFAKFLSLTTTEIPTQVFGCFRPKYRLILPKHPLNPPRTPDNQASGLPFRRQRAHLACWRLSTGSNTSPSDGFAHSL,not soluble
17,MAGDPMIMVNLRIINFIGDIMKIRGICYRCGAEDELIDGLCPICYAQEHPLIEVPDRVEIEVCHMCGSYKRKIWQTPKSEEAFEILNEIAYYATKDAIKKKSVMVEVEIYPEVTQLPGGKRSKLIIPVHIVARGRLPGEKEDRTYEKDIEVHLRMVQCPRCSRFMSNYYEATLQVRAMNRYLTEEEREELDNFVREELAKRLKKDRMAFIAKFIPQKEGLDYQLGSVGAARNVAQRIKEKYGGKITETATLVGVDRDSGKELYRVTVSVRVPEYKVGDVVEYKDKYYLVTAITEDKVYMKSIDYKREKIGLAWHIAEKETKMAKKKDELDTATVIATTPTIMVMDDKSYEVYEFDNIGDVKIKEGDKVKIFKKEGVSYLVNKIEGKDKQLEHHHHHH,soluble
18,TKEHRAAARKIAGESFVLLKNEGLSPTLAPVLPLSPTGTIAVIGPLANTRSNMPGTWSVAAVLDKSPSLVEGLTEWVGNQGKILYAKGSNLIGDAAYEERATMFGRSLNRDNRTDQQLLDEALKIASQADVIVAALGESSEMSGESSSRTNLNLPDVQHTLLEALLKTGKPVVLVLFTGRPLVLNWEQEHVPAILNVWFGGSEAGPAIGDVLFGAVNPGGKLTMTFPKSVGQIPLYYAHKNTGRPLKEGKWFEKFRSNYLDVDNDALYPFGYGLSYTTF,not soluble
19,MGSDKIHHHHHHMQLRALMYFDELVRTNSMRAAAENLNVAPTAVSRQIENLEYYFGSPLVERSSRGVKLTAAGELLAARAGKTLRELDHVHRLIDDLKGLQRGRVTVYANGATVANLLAPVLAQFSLKYPKLRFEVHITSARQAMEALGAAEADLVVSLFAPKLSGVKVRSRTRISYDVIFPAGHALAAQPEVSLKELAGMPLALPDKSFAARQAFDTLFADAGIELDPVFITSSLEMLKELVLGNAAATLLPALSVAREIRSGQMVAVPLAGKKGIHTQIDLCVAPDRQLSFAASKLADFIERFMREATAG,not soluble
20,MILTPPDTPFFLRNGNADTIAAKFLQRPAPAYRRELLPDSTGKTKVAYDFSDGISPDAPLVVLFHGLEGSSRSHYAVELMLAVRDRGWHGVVVHFRSCGGIANTAPVFYHLGDTAEIAFTLDTFAARYREIYAVGVSLGGNALAKYLGEQGKKALPQAAAVISAPVDAEAAGRRFDSGITRLLYTRYFLRTLIPKAKSLQGFQTAFAAGCKTLGEFDDRFTAPLHGFADRHDYYRQTSCKPLLKHVAKPLLLLNAVNDPFLPPEALPRADEVSEAVTLFQPAYGGHVGFVSSTGGRLHLQWLPQTVLSYFDSFRTNRR,not soluble
21,MGSDKIHHHHHHMRSIKNITLGLATVGVMSLSGCAGDYLDTIPSTSVSETTINTSLDNLYIALNGIHKEMVSQESGYQCLGGEPGFMMSRDAEADDMNWQTNTWMKAAYLGWQCNMNETNGYNYKFWQIYYQWILNANKILAGLEEVEITSQELFDQIKGEALCIRAWAHFNLVQLYAKRYEAGKDNTQDGIPYREKAVAEEQARNSVEDVYAKINNDLDEACILLSGIKVNDVNHYSEMVAWGLKARVALAMQDYNNAAVYAGKSVSLAEAGGHRLMTGSQLNCGFANITTDTKEAMYAAMTPDDKTVYFYSYYAYMSWNFNSSAIRQGVKCINVDAYETMSETDLRRAWWDPTGEASVPSSSYAKNAYQNRKFTARSTADAVGDVAFMRLAEMYLTQAEALARAGKDSEAQAVFTKFQITRDPSYVSKGNIGDALAEEIMNSRRVELWGEGFRFL,not soluble
22,MRHLKSFYVFHVAASSSSYTEAADKLNITHGAVSKQIKQLEQYLSQPLFLKEGRKSVLTAEGELLKTYTKTAFQTLETGVNTLIQEKHQHLEVSCEPTLTMRWLMPRLAAFNDEHRADVR,not soluble
